Source: the supplement of paper PMC10126150
± gives the standard deviation of the averaged measurements.

Test system: ATP
Test: switch fluorescence ratio, 500 uM ATP over buffer (Cy3 cluster intensity, sum of 5 cycles each) (fold (ratio)); higher = stronger signal-on switching upon ATP binding; sequences stand for … in TCGTCGGCAGCGTCAGATGTGTATAAGAGACAGTTTTTTTTTTTTTTTTTTTTTTTTT…TC
Conditions: aptamer strand: ATP DNA aptamer (quencher-CACCTGGGGGAGTATTGCGGAGGAAGG + anchor), 100 nM annealed; ATP concentration: 500 uM
Summary of the method: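 Clusters carrying Cy3-labelled switching strands on a modified Illumina MiSeq flow-cell were annealed to 100 nM quencher-labelled ATP aptamer and imaged in selection buffer. They were imaged again after 15 min with 500 uM ATP at 22 °C, over five buffer/ATP cycles with NaOH stripping and re-annealing in between. For each cluster, the fluorescence ratio is the summed Cy3 intensity of the target cycles divided by that of the buffer cycles, averaged per switch-domain sequence. Clusters outside 100-1000 RFU were left out.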
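Note: ATP exposure 15 min at 22 °C before imaging.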

| Sequence | switch fluorescence ratio |
| --- | --- |
| TTTCCTTTT | 1.014 ± 0.0083 |
| CGGTTGTGGG | 0.996 ± 0.018 |
| TTGGCGAGTT | 1.007 ± 0.002 |
| TGCCCATAGT | 1.009 ± 0.003 |
| GTATGCGTGT | 1.04 ± 0.034 |
| AGTTTTGGCG | 0.973 ± 0.0047 |
| TTGATGCAGC | 0.958 ± 0.054 |
| ATACCGAGTA | 1.01 ± 0.049 |
| GGTGGGATTT | 0.9506 ± 0.0055 |
| TTTGCTGGGA | 0.9812 ± 0.0098 |
| TGTCAGAAAT | 0.992 ± 0.02 |
| GAAAGAGGGA | 1.02 ± 0.079 |
| TTCGACTAGC | 1.03 ± 0.03 |
| ATTAGTAAGG | 1.01 ± 0.011 |
| GTTATATAAC | 1.03 ± 0.058 |
| ATTGTTTTGG | 0.981 ± 0.028 |
| TAGGGGGTAC | 1.31 ± 0.58 |
| GTAATTTGCA | 0.9986 ± 0.0055 |
| CGTAGTTCTT | 1.01 ± 0.03 |
| ATGCACGGAA | 1.05 ± 0.036 |
| TAAGGGTCCC | 0.965 ± 0.016 |
| TGTGTTTTTT | 0.999 ± 0.02 |
| AAGCGGAAGG | 1.05 ± 0.02 |
| TAAGGCTGGG | 0.962 ± 0.034 |
| GTGGTAGGGG | 0.995 ± 0.025 |

| Sequence | switch fluorescence ratio |
| --- | --- |
| CAGGTGTGGA | 1.044 ± 0.0053 |
| AAATTCGGCG | 1.01 ± 0.023 |
| GTTGTTACGG | 1.01 ± 0.037 |
| GTTTTTTGAG | 1 ± 0.046 |
| GAAGTGTGGG | 0.962 ± 0.03 |
| GGAATTATTT | 1.017 ± 0.01 |
| GGTGTAGGAC | 1.03 ± 0.012 |
| GGGAAGTTGG | 0.986 ± 0.013 |
| GGTTGAGGAC | 1.01 ± 0.057 |
| AGCCTGCCCG | 1.05 ± 0.037 |
| TTCCGGGGGT | 1 ± 0.015 |
| AAGAGGAAGC | 0.984 ± 0.049 |
| GTGTTTTTCC | 1.41 ± 0.49 |
| ATAGAATGCG | 0.9955 ± 0.0012 |
| AGAAAGTTTT | 0.993 ± 0.025 |
| TGTGGCGGTT | 1.015 ± 0.0077 |
| AAGTATAAGG | 0.994 ± 0.011 |
| TTAAGCTTTT | 0.989 ± 0.012 |
| ACGGGGCTTT | 1.05 ± 0.024 |
| AGAGTTTTTT | 0.998 ± 0.018 |
| AGTTTTGTTG | 0.989 ± 0.036 |
| TGAATGGGGG | 1.01 ± 0.045 |
| TTGTTTCAAG | 1.01 ± 0.029 |
| ACAGTACTTT | 1.26 ± 0.019 |
| TTTGGAGTTG | 0.987 ± 0.064 |

| Sequence | switch fluorescence ratio |
| --- | --- |
| ATTGAGGGAG | 1 ± 0.024 |
| TCGTAGGATG | 0.975 ± 0.037 |
| GCGCTCGGCA | 1.019 ± 0.00084 |
| GTTTTGGGGA | 0.996 ± 0.011 |
| CATGTTTTGG | 0.9836 ± 0.0043 |
| GTTGGTTATG | 0.99 ± 0.041 |
| GCGGCTGGGA | 1.047 ± 0.0092 |
| GACTAGGTTT | 1.04 ± 0.013 |
| TGGGGTTCTG | 0.9832 ± 0.0022 |
| ACCTCATTTG | 1.067 ± 0.0049 |
| TGGGTTAAAT | 0.995 ± 0.023 |
| GGGAGGGTTT | 0.98 ± 0.022 |
| TTTAGGTGTA | 0.985 ± 0.02 |
| TGTTAAAGGA | 0.991 ± 0.022 |
| AACTGACGAA | 1.29 ± 0.019 |
| TATTTTTGCG | 0.97 ± 0.05 |
| CGTTGCATGC | 1.39 ± 0.099 |
| TGGGAGAGTT | 0.993 ± 0.023 |
| AGTCGTGGGC | 0.98 ± 0.041 |
| TGAATAGAAC | 1.01 ± 0.015 |
| TAGACATCCA | 1.048 ± 0.0045 |
| TTTTTGAAAC | 1.01 ± 0.027 |
| TTGGGTTTG | 0.964 ± 0.011 |
| TTGGACAGTT | 0.99 ± 0.04 |
| GGGTTTGAGA | 1.005 ± 0.0042 |

| Sequence | switch fluorescence ratio |
| --- | --- |
| GGCTGTGGGT | 0.987 ± 0.052 |
| TATCATATCA | 0.956 ± 0.017 |
| ACCTGATTAT | 1.02 ± 0.02 |
| TTGTAAGGTC | 1 ± 0.031 |
| TTAGGCGTAT | 0.989 ± 0.041 |
| ACCCGGGGCA | 1.05 ± 0.054 |
| GGCTTTGAAG | 0.9951 ± 0.0023 |
| TGAGCTTTTT | 0.993 ± 0.03 |
| GAGGTTGGGG | 1.02 ± 0.059 |
| TGAGTAACAG | 0.981 ± 0.012 |
| CTCACATTGA | 1.05 ± 0.025 |
| TGCCCCACGT | 1.17 ± 0.16 |
| TTGGACTCGG | 0.997 ± 0.034 |
| TTTGGGCCTG | 1.001 ± 0.0022 |
| TATGAATTTG | 1 ± 0.028 |
| GTGTCCGTGG | 1.003 ± 0.0037 |
| ATAAGATATG | 0.999 ± 0.012 |
| AGTAATCGCT | 0.985 ± 0.01 |
| CTAAGGGGGG | 1.04 ± 0.033 |
| GGACTTTTTT | 1.03 ± 0.016 |
| GGGGGAACTT | 0.977 ± 0.032 |
| TTAAAAATAT | 1.02 ± 0.053 |
| TAGTAACGGT | 0.996 ± 0.053 |
| GAAGGGTGGG | 1 ± 0.022 |
| ATTTTAAGCG | 1.01 ± 0.014 |
